In US20200024330A1:

Key:
Assay in all cases: cell-based or functional assay
[1] = biological target: HIV-1 Env of isolate MGRM-D-013 (HIV-1)
[2] = biological target: HIV-1 Env of isolate 92UG114 (HIV-1)
[3] = biological target: HIV-1 Env of isolate MGRM-AG-003 (CRF_AG), on pseudovirus (HIV-1)
[4] = biological target: HIV-1 Env of isolate 92UG046 (HIV-1)
[5] = biological target: HIV-1 Env of isolate MGRM-AG-002 (CRF_AG), on pseudovirus (HIV-1)
[6] = biological target: HIV-1 Env of isolate MGRM-D-003 (HIV-1)
[7] = biological target: HIV-1 Env of isolate CMU02 (CRF01_AE), on pseudovirus (HIV-1)
[8] = biological target: HIV-1 Env of isolate 92UG001 (HIV-1)
[9] = biological target: HIV-1 Env of isolate MGRM-F1-008 (subtype F), on pseudovirus (HIV-1)
[10] = biological target: HIV-1 Env of isolate 92WR026 (HIV-1)
[11] = biological target: HIV-1 Env of isolate MGRM-C-022 (HIV-1)
[12] = biological target: HIV-1 Env of isolate 97ZA012 (HIV-1)
[13] = biological target: HIV-1 Env of isolate MGRM-F1-013 (subtype F), on pseudovirus (HIV-1)
[14] = biological target: HIV-1 Env of isolate MGRM-C-012 (HIV-1)
[15] = biological target: HIV-1 Env of isolate MGRM-AG-006 (CRF_AG), on pseudovirus (HIV-1)
[16] = biological target: HIV-1 Env of isolate MGRM-F1-010 (subtype F), on pseudovirus (HIV-1)
[17] = biological target: HIV-1 Env of isolate MGRM-G-024 (HIV-1)
[18] = biological target: HIV-1 JR-CSF Env Y177A (HIV-1 (isolate JR-CSF)) (UniProt P20871)
[19] = biological target: HIV-1 JR-CSF Env V127A (HIV-1 (isolate JR-CSF)) (UniProt P20871)
[20] = biological target: HIV-1 JR-CSF Env G471A (HIV-1 (isolate JR-CSF)) (UniProt P20871)
[21] = biological target: HIV-1 JRCSF Env (pseudovirus) (HIV-1) (UniProt P20871)
[22] = biological target: HIV-1 Env of isolate 98CN006 (subtype CRF08 BC) (HIV-1)
[23] = biological target: HIV-1 Env of isolate MGRM-F1-008 (subtype F) (HIV-1)
[24] = biological target: HIV-1 MGRM-Chronic-B-012 Env (pseudovirus) (HIV-1)
[25] = biological target: HIV-1 Env of isolate MG RM-D-024 (subtype D) (HIV-1)
[26] = biological target: HIV-1 Env of isolate MGRM-F1-014 (HIV-1)
[27] = biological target: HIV-1 APV_6 Env (pseudovirus) (HIV-1)
[28] = biological target: HIV-1 Env of isolate MG RM-AG-009 (HIV-1)
[29] = biological target: HIV-1 Env of isolate MGRM-F1-015 (HIV-1)
[30] = biological target: HIV-1 APV_13 Env (pseudovirus) (HIV-1)
[31] = biological target: HIV-1 Env of isolate 98CN009 (subtype CRF07_BC) (HIV-1)
[32] = biological target: HIV-1 Env of isolate MGRM-F1-020 (HIV-1)
[33] = biological target: HIV-1 Env of isolate MG RM-D-019 (subtype D) (HIV-1)
[34] = biological target: HIV-1 Env of isolate MG RM-D-026 (subtype D) (HIV-1)
[35] = biological target: HIV-1 MGRM-Chronic-B-003 Env (pseudovirus) (HIV-1)

5329_C19 (PGT-136) (antibody), sequence (VH): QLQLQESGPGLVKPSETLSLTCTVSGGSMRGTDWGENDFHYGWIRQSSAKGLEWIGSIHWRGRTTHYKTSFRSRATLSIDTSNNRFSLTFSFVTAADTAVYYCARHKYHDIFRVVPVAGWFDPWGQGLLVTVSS
5329_C19 (PGT-136) (antibody), sequence (VL): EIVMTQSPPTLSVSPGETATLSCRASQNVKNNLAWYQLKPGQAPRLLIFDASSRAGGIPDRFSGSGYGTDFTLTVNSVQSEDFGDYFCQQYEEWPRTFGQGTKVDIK
5345_I01 (PGT-137) (antibody), sequence (VH): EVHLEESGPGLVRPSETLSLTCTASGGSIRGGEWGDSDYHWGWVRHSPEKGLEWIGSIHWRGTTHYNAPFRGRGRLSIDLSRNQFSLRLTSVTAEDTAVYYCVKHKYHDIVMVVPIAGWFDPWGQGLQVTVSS
5345_I01 (PGT-137) (antibody), sequence (VL): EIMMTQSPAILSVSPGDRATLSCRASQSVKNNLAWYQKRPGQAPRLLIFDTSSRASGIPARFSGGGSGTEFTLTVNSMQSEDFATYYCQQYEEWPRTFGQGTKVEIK

Substance	IC50 [1] [µg/mL]	IC50 [2] [µg/mL]	IC50, single-round pseudovirus neutralization [3] [µg/mL]	IC50 [4] [µg/mL]	IC50, single-round pseudovirus neutralization [5] [µg/mL]	IC50 [6] [µg/mL]	IC50, single-round pseudovirus neutralization [7] [µg/mL]	IC50 [8] [µg/mL]	IC50, pseudovirus neutralization [9] [µg/mL]	neutralization IC50 [10] [µg/mL]	IC50 [11] [µg/mL]	IC50 [12] [µg/mL]	IC50, pseudovirus neutralization [13] [µg/mL]	IC50 [14] [µg/mL]	IC50, single-round pseudovirus neutralization [15] [µg/mL]	IC50, pseudovirus neutralization [16] [µg/mL]	IC50, pseudovirus neutralization [17] [µg/mL]	Fold IC50 increase relative to wild-type [18] [fold]	Fold IC50 increase relative to wild-type [19] [fold]	Fold IC50 increase relative to wild-type [20] [fold]	further results
5329_C19 (PGT-136) (antibody)	> 50	> 50	> 50	> 50	> 50	> 50	> 50	> 50	> 50	> 50	> 50	> 50	> 50	> 50	29.1	> 50	0.152	–	–	–	–
5136_H01 (PGT-131) (antibody)	4.14	> 50	2.92	> 50	> 50	19.6	> 50	> 50	2.74	0.041	0.78	1.81	> 50	> 50	0.019	> 50	10.7	5.3	0.6	1.2	–
5145_B14 (PGT-127) (antibody)	–	–	–	–	–	–	–	–	–	–	–	–	–	–	–	–	> 50	2.9	2.5	1.2	IC50, pseudovirus neutralization [21]: 0.018 µg/mL; IC50 (µg/mL), pseudovirus neutralization [22]: 0.067 µg/mL; IC50 (µg/mL), pseudovirus neutralization [23]: > 50 µg/mL; IC50, pseudovirus neutralization [24]: 0.075 µg/mL; IC50 (µg/mL), pseudovirus neutralization [25]: 1.95 µg/mL; IC50 [26]: > 50 µg/mL; IC50, pseudovirus neutralization [27]: 0.04 µg/mL; neutralization IC50 [28]: 0.059 µg/mL; IC50 [29]: > 50 µg/mL; IC50, pseudovirus neutralization [30]: 0.026 µg/mL; IC50 (µg/mL), pseudovirus neutralization [31]: 0.09 µg/mL; IC50 [32]: > 50 µg/mL; IC50 (µg/mL), pseudovirus neutralization [33]: > 50 µg/mL; IC50 (µg/mL), pseudovirus neutralization [34]: > 50 µg/mL; IC50, pseudovirus neutralization [35]: 0.12 µg/mL
4838_L06 (PGT-121) (antibody)	–	–	–	–	–	–	–	–	–	–	–	–	–	–	–	–	–	–	–	–	IC50, pseudovirus neutralization [21]: 0.027 µg/mL; neutralization IC90 [21]: 0.223 µg/mL; neutralization IC95 [21]: 0.417 µg/mL; IC50 (µg/mL), pseudovirus neutralization [22]: 0.01 µg/mL; IC50 (µg/mL), pseudovirus neutralization [23]: > 50 µg/mL; IC50, pseudovirus neutralization [24]: 0.036 µg/mL; IC50 (µg/mL), pseudovirus neutralization [25]: 0.038 µg/mL; IC50, pseudovirus neutralization [27]: 0.018 µg/mL; neutralization IC50 [28]: 0.08 µg/mL; IC50 [29]: 28.4 µg/mL; IC50, pseudovirus neutralization [30]: 0.251 µg/mL; IC50 (µg/mL), pseudovirus neutralization [31]: 0.009 µg/mL; IC50 [32]: 0.167 µg/mL; IC50 (µg/mL), pseudovirus neutralization [33]: > 50 µg/mL; IC50 (µg/mL), pseudovirus neutralization [34]: > 50 µg/mL; IC50, pseudovirus neutralization [35]: 0.011 µg/mL
5345_I01 (PGT-137) (antibody)	> 50	> 50	> 50	> 50	> 50	> 50	> 50	> 50	> 50	0.092	> 50	> 50	> 50	0.102	28.3	> 50	0.051	–	–	–	–
